One block for each molecule: values may come before it.
Assays:
[1] = target: T1, RhlB (E. coli DEAD-box RNA helicase), wild type (E. coli) (UniProt P0A8J8)
T1 sequence: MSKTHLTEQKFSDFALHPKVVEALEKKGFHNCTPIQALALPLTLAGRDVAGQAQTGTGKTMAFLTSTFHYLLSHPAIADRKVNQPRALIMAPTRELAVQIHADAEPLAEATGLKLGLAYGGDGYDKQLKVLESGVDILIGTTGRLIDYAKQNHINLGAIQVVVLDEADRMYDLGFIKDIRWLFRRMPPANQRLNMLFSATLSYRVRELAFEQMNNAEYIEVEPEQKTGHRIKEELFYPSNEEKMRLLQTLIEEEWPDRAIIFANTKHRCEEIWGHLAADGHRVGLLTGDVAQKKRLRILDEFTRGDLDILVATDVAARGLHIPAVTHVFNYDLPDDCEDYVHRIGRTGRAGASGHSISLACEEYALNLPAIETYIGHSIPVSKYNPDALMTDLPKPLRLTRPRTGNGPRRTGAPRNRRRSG

[2] = target: T1, RhlB (E. coli DEAD-box RNA helicase), wild type (E. coli); remark: listed apart in the source
RhlB = target: T2, RhlB (Escherichia coli, UniProt P0A8J8 1-421); test: NMR (1H imino titration); no ATP; 4.5 mM Mg2+; NMR: 150 mM KCl, 25 mM Tris/HCl, 5 mM DTT, 4.5 mM MgCl2, pH 8.3, 288 K, 100 µM RNA; EMSA: 150 mM NaCl, 25 mM Tris, 1.5 mM MgCl2, 5 mM DTT, 10% glycerol, pH 8.3, 4 C, 1.5 µM RNA; conditions: protein: recombinant, tags: C-terminal TEV site (ENLYFQG) + 6xHis, His-tag removed by TEV, site remnant left
T2 sequence: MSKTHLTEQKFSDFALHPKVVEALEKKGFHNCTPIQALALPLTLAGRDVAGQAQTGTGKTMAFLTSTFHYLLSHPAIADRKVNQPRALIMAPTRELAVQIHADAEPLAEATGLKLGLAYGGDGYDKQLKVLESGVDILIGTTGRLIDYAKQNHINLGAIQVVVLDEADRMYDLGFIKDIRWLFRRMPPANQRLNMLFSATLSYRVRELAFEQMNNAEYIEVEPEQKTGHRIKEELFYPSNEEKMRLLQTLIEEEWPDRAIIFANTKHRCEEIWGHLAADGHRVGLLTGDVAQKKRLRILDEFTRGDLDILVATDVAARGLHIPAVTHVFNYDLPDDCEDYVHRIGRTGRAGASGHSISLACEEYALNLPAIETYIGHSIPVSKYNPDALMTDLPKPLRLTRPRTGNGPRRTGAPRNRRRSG

RhlB;RNase E (694-790) = RhlB;RNase E (694-790) (Escherichia coli;Escherichia coli, UniProt P0A8J8;P21513 1-421;694-790, |); test: as above; conditions: protein: recombinant;recombinant, tags: C-terminal TEV site (ENLYFQG) + 6xHis, His-tag removed by TEV, site remnant left;N-terminal 6xHis-TEV, purified analogously (tag cleaved), copies: 1;1
[3] = target: T3, RhlB (E. coli DEAD-box RNA helicase), wild type (E. coli, UniProt P0A8J8 1-421); test: cell-based or functional assay
T3 sequence (looked up): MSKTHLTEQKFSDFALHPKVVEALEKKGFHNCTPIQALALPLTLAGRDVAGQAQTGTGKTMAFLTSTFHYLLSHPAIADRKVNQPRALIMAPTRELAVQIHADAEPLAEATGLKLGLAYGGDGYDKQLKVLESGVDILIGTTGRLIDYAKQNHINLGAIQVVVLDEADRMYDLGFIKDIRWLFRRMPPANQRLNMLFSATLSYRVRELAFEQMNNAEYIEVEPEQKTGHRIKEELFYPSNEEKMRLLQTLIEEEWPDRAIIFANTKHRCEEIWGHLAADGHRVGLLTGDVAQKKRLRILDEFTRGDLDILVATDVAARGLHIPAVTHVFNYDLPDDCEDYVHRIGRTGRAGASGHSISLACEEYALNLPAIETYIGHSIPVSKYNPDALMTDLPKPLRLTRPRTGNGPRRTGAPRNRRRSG

[4] = label: none (titration), 3' overhang 8 nt
[5] = label: none (titration), single strand, two weak base pairs under NMR conditions

- ATP turnover rate of RhlB (EnzChek phosphate assay, 2.4 uM RhlB and RNase E fragment, 6 uM RNA substrates of different topology), fold increase over RhlB alone [1]: < 27 fold
- ATP turnover of RhlB with 5'-OV RNA, activation factor over RhlB alone, 31P real-time NMR experiment (400 uM RhlB/RNase E 1:1, 100 uM RNA) [2]: 2 fold
- ATP turnover of RhlB with 5'-OV RNA, activation factor over RhlB alone, phosphate assay [2]: 10 fold
Molecule: RNase E (628-843) (from UniProt P21513 628-843) (domain or fragment)

B1: Blunt duplex 13 nt (dsRNA)
RNA 1: UAGUAACUAAAAC
RNA 2: GUUUUAGUUACUA
- Kd (RhlB; label: none, blunt): 155 ± 33.7 µM
- Kd (RhlB;RNase E (694-790); label: none, blunt): 488 ± 40.5 µM

B2: 3'-OV duplex (dsRNA)
RNA 1: UAGUAACUAAAACAUUAAAUU
RNA 2: GUUUUAGUUACUA
- Kd (RhlB; [4]): 216 ± 33.7 µM
- Kd (RhlB;RNase E (694-790); [4]): 82.3 ± 27.3 µM

Molecule: UAGUAACUAAAACAUUAAAUU (ssRNA) [21 nt single strand]
- Kd (RhlB; [5]): 94.9 ± 59.2 µM
- Kd (RhlB;RNase E (694-790); [5]): 264.5 ± 1 µM

B3: Blunt duplex 21 nt (dsRNA)
RNA 1: UAGUAACUAAAACAUUAAAUU
RNA 2: AAUUUAAUGUUUUAGUUACUA
- Kd (RhlB; label: none, blunt): 162 ± 30.3 µM

- ATP turnover rate of RhlB (EnzChek phosphate assay, 2.4 uM RhlB and RNase E fragment, 6 uM RNA substrates of different topology), fold increase over RhlB alone [3]: ≤ 6 fold
B4: RNase E (694-790) (domain or fragment, E. coli, UniProt P21513 694-790, looked up)
chain: AKALNVEEQSVQETEQEERVRPVQPRRKQRQLNQKVRYEQSVAEEAVVAPVVEETVAAEPIVQEAPAPRTELVKVPLPVVAQTAPEQQEENNADNRD
